The values below come from publication PMC7125077, “In TFIIH the Arch domain of XPD is mechanistically essential for transcription and DNA repair” (Nature Communications, 2020).

The target of the experiment is human XPD, wild type (XPD-FLAG) (human, UniProt P18074 1-760). Description: cell-based or functional assay.

B1: human CDK activating kinase complex (CAK), wild type: MAT1 / CDK7-Strep / Cyclin H (complex)
chain 1: MDDQGCPRCKTTKYRNPSLKLMVNVCGHTLCESCVDLLFVRGAGNCPECGTPLRKSNFRVQLFEDPTVDKEVEIRKKVLKIYNKREEDFPSLREYNDFLEEVEEIVFNLTNNVDLDNTKKKMEIYQKENKDVIQKNKLKLTREQEELEEALEVERQENEQRRLFIQKEEQLQQILKRKNKQAFLDELESSDLPVALLLAQHKDRSTQLEMQLEKPKPVKPVTFSTGIKMGQHISLAPIHKLEEALYEYQPLQIETYGPHVPELEMLGRLGYLNHVRAASPQDLAGGYTSSLACHRALQDAFSGLFWQPS
chain 2: MALDVKSRAKRYEKLDFLGEGQFATVYKARDKNTNQIVAIKKIKLGHRSEAKDGINRTALREIKLLQELSHPNIIGLLDAFGHKSNISLVFDFMETDLEVIIKDNSLVLTPSHIKAYMLMTLQGLEYLHQHWILHRDLKPNNLLLDENGVLKLADFGLAKSFGSPNRAYTHQVVTRWYRAPELLFGARMYGVGVDMWAVGCILAELLLRVPFLPGDSDLDQLTRIFETLGTPTEEQWPDMCSLPDYVTFKSFPGIPLHHIFSAAGDDLLDLIQGLFLFNPCARITATQALKMKYFSNRPGPTPGCQLPRPNCPVETLKEQSNPALAIKRKRTEALEQGGLPKKLIF
chain 3: MYHNSSQKRHWTFSSEEQLARLRADANRKFRCKAVANGKVLPNDPVFLEPHEEMTLCKYYEKRLLEFCSVFKPAMPRSVVGTACMYFKRFYLNNSVMEYHPRIIMLTCAFLACKVDEFNVSSPQFVGNLRESPLGQEKALEQILEYELLLIQQLNFHLIVHNPYRPFEGFLIDLKTRYPILENPEILRKTADDFLNRIALTDAYLLYTPSQIALTAILSSASRAGITMESYLSESLMLKENRTCLSQLLDIMKSMRNLVKKYEPPRSEEVAVLKQKLERCHSAELALNVITKKRKGYEDDDYVSKKSKHEEEEWTDDDLVESL
For the molecule B1, the “in vitro transcription of TFIIH reconstituted from rIIH6, CAK and XPD, % of wild type” value was 100%.
